For this series, the system named is BfuCI restriction endonuclease. Kind of series: cleavage_in_vitro. The conditions noted are these: for binding signal (signal/no-template): after 25 min.
Setting [1] is: phosphorothioate 5' of GATC in probe B.
Setting [2] is: phosphorothioate 5' of GATC in probe B, JP3 cleaved greater than four times faster.

The sequence “AGAGTCCACCAAGCTTCAGATTAG / TCTGAAGCTTTGATC / AGTAACGGAAAACCGTTACTAAAAGATCAATTTGGTGGACTCT [JP13]” yielded a binding signal (signal/no-template) under setting [1] of 13.5.
“AGAGTCCACCAAGCTTCAGATTAG / TCTGAAGCTTTGATC / TTTTGATCAAATTGGTGGACTCTAAAA [JP9]”: under setting [2], the binding signal is below 0.25 fold vs JP3.
Regarding “AGAGTCCACCAAGCTTCAGATTAG / TCTGAAGCTTTGATC / AAAAGATCAAATTGGTGGACTCTAAAA [T1/A/B junction probe (JP2)]”, the binding signal (fold vs no template) (NEBuffer 4, 10 mM Mg, 30 C, 5 h) was 60.
In the case of “AGAGTCCACCAAGCTTCAGATTAG / TCTGAAGCTTTGATC / CCCCGATCAAATTGGTGGACTCTAAAA [JP8]”, under setting [2], the binding signal is below 0.25 fold vs JP3.
On to “AGAGTCCACCAAGCTTCAGATTAG / TCTGAAGCTTTGATC / AGTAACGGAAAACCGTTACTAAAAGATCATATTGGTGGACTCT [JP14]”, for which, under setting [1], the binding signal (signal/no-template) was 9.
Under “phosphorothioate 5' of GATC in probe B, initial rate, 30 C”, “AGAGTCCACCAAGCTTCAGATTAG / TCTGAAGCTTTGATC / TGTAACGGAAAACCGTTACAGATCATATTGGTGGACTCT [JP16]” came in with an activity of 43 nM/min.
Take “AGAGTCCACCAAGCTTCAGATTAG / TCTGAAGCTTTGATC / TGTAACGGAAAACCGTTACAGATCAAATTGGTGGACTCT [JP12]”: the activity (phosphorothioate 5' of GATC in probe B, average rate first 5 min, 30 C) is 39 nM/min.
As to “AGAGTCCACCAAGCTTCAGATTAG / TCTGAAGCTTTGATC / AGTAACGGAAAACCGTTACTAAAAGATCAAATTGGTGGACTCT [JP10]”, the binding signal (signal/no-template) under setting [1] stood at 4.7.
With “AGAGTCCACCAAGCTTCAGATTAG / TCTGAAGCTTTGATC / TGGATCGGAAAACCGATCCAGATCATATTGGTGGACTCT [JP18]”, under “phosphorothioate 5' of each GATC in probe B, initial rate, NEBuffer 4, 10 mM Mg, 30 C”, the activity is 82 nM/min.
Regarding “AGAGTCCACCAAGCTTCAGATTAG / TCTGAAGCTTTGATC / AAAAGATCAAATTGGTGGACTCTAAAA [JP4]”, the binding signal (phosphorodithioate 5' of GATC in probe B, fluorescence enhancement) was determined as 3 fold vs JP2.
Consider “AGAGTCCACCAAGCTTCAGATTAG / TCTGAAGCTTTGATC / GGGGGATCAAATTGGTGGACTCTAAAA [JP7]”, for which the binding signal under setting [2] was below 0.25 fold vs JP3.
“AGAGTCCACCAAGCTTCAGATTAG / TCTGAAGCTTTGATC / AAAAGATCAAATTGGTGGACTCTAAAA [JP3]”: where the note is “phosphorothioate 5' of GATC in probe B, average rate first 5 min, 7-fold signal enhancement over JP2”, the activity was 0.9 nM/min.

Source of the values: patent US20110207132.
